Measured values published in US20040006018A1 (Genentech, published 2004).
Blank lines part the entries; values can stand above or below the binder they belong to.

What was measured:
[1] = molecular target: T1, Mouse LIF (leukemia inhibitory factor) (mouse, UniProt P09056 24-203); test: binding of LIF to His-tagged soluble LIF receptor on Ni-NTA agarose
[2] = molecular target: T1, Mouse LIF (leukemia inhibitory factor); test: Scatchard analysis of binding to M1 cells, summary over both labeled ligands
[3] = molecular target: T1, Mouse LIF (leukemia inhibitory factor); test: 0.047 nM 125I-mouse CT-1 on M1 cells competed by unlabeled LIF, Scatchard, one-site fit
From the text: (§1) Shown are competition and Scatchard (insert) plots of the data.

[4] = molecular target: T1, Mouse LIF (leukemia inhibitory factor); test: 0.042 nM 125I-mouse LIF on M1 cells competed by unlabeled LIF, Scatchard, one-site fit
From the text: as §1

[5] = molecular target: T1, Mouse LIF (leukemia inhibitory factor); test: competition for 125I-human LIF binding to Hela cells

Kd [1]: 1500 pM
B1: Soluble mouse LIF receptor (extracellular domain, amino acids 1-826, with a C-terminal tag of 6 histidine residues) (receptor)
chain: LKRGVQDLKCTTNNMRVWDCTWPAPLGVSPGTVKDICIKDRFHSCHPLETTNVKIPALSPGDHEVTINYLNGFQSKFTLNEKDVSLIPETPEILDLSADFFTSSLLLKWNDRGSALPHPSNATWEIKVLQNPRTEPVALVLLNTMLSGKDTVQHWNWTSDLPLQCATHSVSIRWHIDSPHFSGYKEWSDWSPLKNISWIRNTETNVFPQDKVVLAGSNMTICCMSPTKVLSGQIGNTLRPLIHLYGQTVAIHILNIPVSENSGTNIIFITDDDVYGTVVFAGYPPDVPQKLSCETHDLKEIICSWNPGRITGLVGPRNTEYTLFESISGKSAVFHRIEGLTNETYRLGVQMHPGQEIHNFTLTGRNPLGQAQSAVVINVTERVAPHDPTSLKVKDINSTVVTFSWYLPGNFTKINLLCQIEICKANSKKEVRNATIRGAEDSTYHVAVDKLNPYTAYTFRVRCSSKTFWKWSRWSDEKRHLTTEATPSKGPDTWREWSSDGKNLIVYWKPLPINEANGKILSYNVSCSLNEETQSVLEIFDPQHRAEIQLSKNDYIISVVARNSAGSSPPSKIASMEIPNDDITVEQAVGLGNRIFLTWRHDPNMTCDYVIKWCNSSRSEPCLLDWRKVPSNSTETVIESDQFQPGVRYNFYLYGCTNQGYQLLRSIIGYVEELAPIVAPNFTVEDTSADSILVKWDDIPVEELRGFLRGYLFYFQKGERDTPKTRSLEPHHSDIKLKNITDISQKTLRIADLQGKTSYHLVLRAYTHGGLGPEKSMFVVTKEHHHHHH
notes: range 44-826; Expressed in human 293 cells, purified on Ni-NTA agarose; single band of 120 kDa; also called smLIFR; soluble LIF receptor

Kd [2]: ~200 pM
Kd [3]: 190 pM
Kd [4]: 260 pM
B2: Mouse LIF receptor on mouse M1 cells (LIF receptor complex with gp130) (receptor)
chain 1: LKRGVQDLKCTTNNMRVWDCTWPAPLGVSPGTVKDICIKDRFHSCHPLETTNVKIPALSPGDHEVTINYLNGFQSKFTLNEKDVSLIPETPEILDLSADFFTSSLLLKWNDRGSALPHPSNATWEIKVLQNPRTEPVALVLLNTMLSGKDTVQHWNWTSDLPLQCATHSVSIRWHIDSPHFSGYKEWSDWSPLKNISWIRNTETNVFPQDKVVLAGSNMTICCMSPTKVLSGQIGNTLRPLIHLYGQTVAIHILNIPVSENSGTNIIFITDDDVYGTVVFAGYPPDVPQKLSCETHDLKEIICSWNPGRITGLVGPRNTEYTLFESISGKSAVFHRIEGLTNETYRLGVQMHPGQEIHNFTLTGRNPLGQAQSAVVINVTERVAPHDPTSLKVKDINSTVVTFSWYLPGNFTKINLLCQIEICKANSKKEVRNATIRGAEDSTYHVAVDKLNPYTAYTFRVRCSSKTFWKWSRWSDEKRHLTTEATPSKGPDTWREWSSDGKNLIVYWKPLPINEANGKILSYNVSCSLNEETQSVLEIFDPQHRAEIQLSKNDYIISVVARNSAGSSPPSKIASMEIPNDDITVEQAVGLGNRIFLTWRHDPNMTCDYVIKWCNSSRSEPCLLDWRKVPSNSTETVIESDQFQPGVRYNFYLYGCTNQGYQLLRSIIGYVEELAPIVAPNFTVEDTSADSILVKWDDIPVEELRGFLRGYLFYFQKGERDTPKTRSLEPHHSDIKLKNITDISQKTLRIADLQGKTSYHLVLRAYTHGGLGPEKSMFVVTKENSVGLIIAILIPVAVAVIVGVVTSILCYRKREWIKETFYPDIPNPENCKALQFQKSVCEGSNALKTLEMNPCTPNNVEVLESRSIVPKIEDTEIISPVAERPGERSEVDPENHVVVSYCPPIIEEEITNPAADEVGGASQVVYIDVQSMYQPQAKAEEEQDVDPVVVAGYKPQMRLPISPAVEDTAAEDEEGKTAGYRPQANVNTWNLVSPDSPRSTDSNNEVVSFGSPCSINSRQFLIPPKDEDSPKSNGGGWSFTNFFQNKPND
chain 2: QLLEPCGYIYPEFPVVQRGSNFTAICVLKEACLQHYYVNASYIVWKTNHAAVPREQVTVINRTTSSVTFTDVVLPSVQLTCNILSFGQIEQNVYGVTMLSGFPPDKPTNLTCIVNEGKNMLCQWDPGRETYLETNYTLKSEWATEKFPDCQSKHGTSCMVSYMPTYYVNIEVWVEAENALGKVSSESINFDPVDKVKPTPPYNLSVTNSEELSSILKLSWVSSGLGGLLDLKSDIQYRTKDASTWIQVPLEDTMSPRTSFTVQDLKPFTEYVFRIRSIKDSGKGYWSDWSEEASGTTYEDRPSRPPSFWYKTNPSHGQEYRSVRLIWKALPLSEANGKILDYEVILTQSKSVSQTYTVTGTELTVNLTNDRYVASLAARNKVGKSAAAVLTIPSPHVTAAYSVVNLKAFPKDNLLWVEWTPPPKPVSKYILEWCVLSENAPCVEDWQQEDATVNRTHLRGRLLESKCYQITVTPVFATGPGGSESLKAYLKQAAPARGPTVRTKKVGKNEAVLAWDQIPVDDQNGFIRNYSISYRTSVGKEMVVHVDSSHTEYTLSSLSSDTLYMVRMAAYTDEGGKDGPEFTFTTPKFAQGEIEAIVVPVCLAFLLTTLLGVLFCFNKRDLIKKHIWPNVPDPSKSHIAQWSPHTPPRHNFNSKDQMYSDGNFTDVSVVEIEANNKKPCPDDLKSVDLFKKEKVSTEGHSSGIGGSSCMSSSRPSISSNEENESAQSTASTVQYSTVVHSGYRHQVPSVQVFSRSESTQPLLDSEERPEDLQLVDSVDGGDEILPRQPYFKQNCSQPEACPEISHFERSNQVLSGNEEDFVRLKQQQVSDHISQPYGSEQRRLFQEGSTADALGTGADGQMERFESVGMETTIDEEIPKSYLPQTVRQGGYMPQ
notes: whole, on cells; Endogenous receptor on M1 cells; also called LIFRβ

binding result [5]: no binding
B3: Human LIF receptor on human Hela cells (receptor)
chain: QKKGAPHDLKCVTNNLQVWNCSWKAPSGTGRGTDYEVCIENRSRSCYQLEKTSIKIPALSHGDYEITINSLHDFGSSTSKFTLNEQNVSLIPDTPEILNLSADFSTSTLYLKWNDRGSVFPHRSNVIWEIKVLRKESMELVKLVTHNTTLNGKDTLHHWSWASDMPLECAIHFVEIRCYIDNLHFSGLEEWSDWSPVKNISWIPDSQTKVFPQDKVILVGSDITFCCVSQEKVLSALIGHTNCPLIHLDGENVAIKIRNISVSASSGTNVVFTTEDNIFGTVIFAGYPPDTPQQLNCETHDLKEIICSWNPGRVTALVGPRATSYTLVESFSGKYVRLKRAEAPTNESYQLLFQMLPNQEIYNFTLNAHNPLGRSQSTILVNITEKVYPHTPTSFKVKDINSTAVKLSWHLPGNFAKINFLCEIEIKKSNSVQEQRNVTIKGVENSSYLVALDKLNPYTLYTFRIRCSTETFWKWSKWSNKKQHLTTEASPSKGPDTWREWSSDGKNLIIYWKPLPINEANGKILSYNVSCSSDEETQSLSEIPDPQHKAEIRLDKNDYIISVVAKNSVGSSPPSKIASMEIPNDDLKIEQVVGMGKGILLTWHYDPNMTCDYVIKWCNSSRSEPCLMDWRKVPSNSTETVIESDEFRPGIRYNFFLYGCRNQGYQLLRSMIGYIEELAPIVAPNFTVEDTSADSILVKWEDIPVEELRGFLRGYLFYFGKGERDTSKMRVLESGRSDIKVKNITDISQKTLRIADLQGKTSYHLVLRAYTDGGVGPEKSMYVVTKENSVGLIIAILIPVAVAVIVGVVTSILCYRKREWIKETFYPDIPNPENCKALQFQKSVCEGSSALKTLEMNPCTPNNVEVLETRSAFPKIEDTEIISPVAERPEDRSDAEPENHVVVSYCPPIIEEEIPNPAADEAGGTAQVIYIDVQSMYQPQAKPEEEQENDPVGGAGYKPQMHLPINSTVEDIAAEEDLDKTAGYRPQANVNTWNLVSPDSPRSIDSNSEIVSFGSPCSINSRQFLIPPKDEDSPKSNGGGWSFTNFFQNKPND
notes: whole, on cells; Endogenous receptor on cells; other subunits (gp130) not examined on these cells
